{"source": "the supplement of paper PMC12042874", "note": "± gives the uncertainty stated by the source.", "data": [{"assay": "amyloid nucleation score (Sup35N fusion, yeast selection) (log enrichment); library NNK3; higher = more nucleation; inactive = no reads after selection", "outline": "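Psi-negative yeast expressed Sup35N fused to peptides of 20 random codons. They were induced 24 hours with 100 μM copper sulfate, grown 7 days at 30°C without adenine and uracil, and their plasmid inserts from input and output were Illumina-sequenced. The nucleation score is the DiMSum log enrichment of output over input reads, centred on the mode score of non-aggregating sequences. Sequences with under 100 input reads were excluded.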", "values": [{"substance": "VECSIVLCII", "amyloid nucleation score": "2.26 ± 0.051"}, {"substance": "WLCWQHSDLMNRDCNGLTLG", "amyloid nucleation score": "inactive"}, {"substance": "RADSGGKCLLAELDGLSPYW", "amyloid nucleation score": "inactive"}, {"substance": "LNLHSSLGMFASLGDMIRVT", "amyloid nucleation score": "inactive"}, {"substance": "ITTCLMYHRLCECGSKVLGL", "amyloid nucleation score": "inactive"}, {"substance": "SDFRVTPLLYE", "amyloid nucleation score": "inactive"}, {"substance": "CRDKANVLAAVRRR", "amyloid nucleation score": "inactive"}, {"substance": "LNFSHGSCGSFCGSIMIST", "amyloid nucleation score": "inactive"}, {"substance": "VYFLSVQLLYLFLSSALQRE", "amyloid nucleation score": "inactive"}, {"substance": "TMSLFTTSVCCWTKGAIRHS", "amyloid nucleation score": "inactive"}, {"substance": "RFTRMWTDWCAGLSGSLRCS", "amyloid nucleation score": "inactive"}, {"substance": "SLSLNIQGSNYFLHIVNIGR", "amyloid nucleation score": "inactive"}, {"substance": "KSEFSRSHWESDD", "amyloid nucleation score": "inactive"}, {"substance": "GTRIGEIRLASFGSVRGFNV", "amyloid nucleation score": "inactive"}, {"substance": "YGGNSIY", "amyloid nucleation score": "inactive"}, {"substance": "SSTTE", "amyloid nucleation score": "inactive"}, {"substance": "ASVPAN", "amyloid nucleation score": "inactive"}, {"substance": "AITYTTSLKVSFVSKGVSGA", "amyloid nucleation score": "0.614 ± 0.32"}, {"substance": "CAHKSGQACKHGVF", "amyloid nucleation score": "0.533 ± 0.4"}, {"substance": "AYAQSYND", "amyloid nucleation score": "inactive"}, {"substance": "ASDSDTCCGFVRGAVYWRLT", "amyloid nucleation score": "-0.117 ± 0.84"}, {"substance": "THLVDYKLVL", "amyloid nucleation score": "inactive"}, {"substance": "FVANISFWFSVFNRVYESYT", "amyloid nucleation score": "0.841 ± 0.1"}, {"substance": "IESKAWISVAGARFYSLGVG", "amyloid nucleation score": "inactive"}, {"substance": "SRTVKSRGSAQQDCGRVLRD", "amyloid nucleation score": "inactive"}, {"substance": "TYFYSIIYYIYGYVFLRRAY", "amyloid nucleation score": "-0.346 ± 0.8"}, {"substance": "LDCTHSTLFWWRRFVSAYSL", "amyloid nucleation score": "inactive"}, {"substance": "TMVFILQMLV", "amyloid nucleation score": "1.47 ± 0.097"}, {"substance": "RADPTRITSPSLLTIMKTHE", "amyloid nucleation score": "inactive"}, {"substance": "QVLQKVHG", "amyloid nucleation score": "inactive"}, {"substance": "HITVNRSKGFDGSRTAPFQM", "amyloid nucleation score": "inactive"}, {"substance": "SSDSKGFHGFGWFFWISLVT", "amyloid nucleation score": "inactive"}, {"substance": "LRCYDILLDA", "amyloid nucleation score": "inactive"}, {"substance": "AFFVVTIFVVNTSCDNVLVS", "amyloid nucleation score": "1.03 ± 0.11"}, {"substance": "FSVIMFMNLRAQFASMDRGG", "amyloid nucleation score": "1.59 ± 0.12"}, {"substance": "NALFHRI", "amyloid nucleation score": "inactive"}, {"substance": "LAIFMDSENSYKRMHTVT", "amyloid nucleation score": "inactive"}, {"substance": "MRYFFLTRNLGLRAEPVC", "amyloid nucleation score": "inactive"}, {"substance": "IYSNSLACDRSGFFKASSSQ", "amyloid nucleation score": "-0.998 ± 1.2"}, {"substance": "GCSRWCFGDTGIE", "amyloid nucleation score": "inactive"}, {"substance": "WSLMCRVAYRYGRVRNSKSG", "amyloid nucleation score": "inactive"}, {"substance": "AAVHWSTIYYSLGMVKDEGG", "amyloid nucleation score": "inactive"}, {"substance": "LENGVHVRRSIEF", "amyloid nucleation score": "inactive"}, {"substance": "NNCSQVHKTRD", "amyloid nucleation score": "inactive"}, {"substance": "GDSGPDKKWHFTKY", "amyloid nucleation score": "inactive"}, {"substance": "FIGDGSRDRRDGLLDLY", "amyloid nucleation score": "inactive"}, {"substance": "SQFTIVVTAVLVT", "amyloid nucleation score": "inactive"}, {"substance": "YIMDLKITANVLTYVACARR", "amyloid nucleation score": "1.4 ± 0.097"}, {"substance": "FPLESG", "amyloid nucleation score": "inactive"}, {"substance": "GGLVSCLSAARIGHHGASLE", "amyloid nucleation score": "inactive"}, {"substance": "LLVCDREVAFAVACSFPCKR", "amyloid nucleation score": "inactive"}, {"substance": "PYRFLESTSRALYFTFSYTF", "amyloid nucleation score": "inactive"}, {"substance": "SLAGEHPRPIVG", "amyloid nucleation score": "inactive"}, {"substance": "LMFNGILNQCSVMYLNRIYK", "amyloid nucleation score": "2.97 ± 0.081"}, {"substance": "NTCKRYGEVI", "amyloid nucleation score": "2.2 ± 0.058"}, {"substance": "HNVFVFCNMAVIELQVNDWL", "amyloid nucleation score": "3.26 ± 0.063"}, {"substance": "ILFTPMPVVD", "amyloid nucleation score": "inactive"}, {"substance": "YYPQRAGYRVPVFLWIGNWR", "amyloid nucleation score": "inactive"}, {"substance": "NSQRASCSSLTYRSELYGNS", "amyloid nucleation score": "inactive"}, {"substance": "QSYVSFYMQVLRSDRTDILR", "amyloid nucleation score": "inactive"}, {"substance": "VSWNWATGLRFRPLSCYGLV", "amyloid nucleation score": "inactive"}, {"substance": "CVRVSPRSDYNQMMVRMGQW", "amyloid nucleation score": "inactive"}, {"substance": "NLCVMPRTTGPLS", "amyloid nucleation score": "inactive"}, {"substance": "KEADDCVREAKFGAEFVTLR", "amyloid nucleation score": "inactive"}, {"substance": "LDLCSRL", "amyloid nucleation score": "inactive"}, {"substance": "VVILGLHRVVDRRNAKVAKL", "amyloid nucleation score": "inactive"}, {"substance": "SVYLTHSLFLRQLVGYLVHL", "amyloid nucleation score": "inactive"}, {"substance": "FSNDFFCLCPS", "amyloid nucleation score": "inactive"}, {"substance": "SIVICS", "amyloid nucleation score": "inactive"}, {"substance": "KANRFRVVMLGVDGVCAFQS", "amyloid nucleation score": "inactive"}, {"substance": "FRYRLWAMRDVKHSYDFSLW", "amyloid nucleation score": "inactive"}, {"substance": "FSAGGVPYYICYSCIAKFRL", "amyloid nucleation score": "inactive"}, {"substance": "FFFLNSWVFYVLMNNDIVCA", "amyloid nucleation score": "inactive"}, {"substance": "FYLGLAYVLSWVGFCVIGVS", "amyloid nucleation score": "inactive"}, {"substance": "ACMNSSSRSVMLLMCYYFSN", "amyloid nucleation score": "inactive"}, {"substance": "MIVSQVCTRSHVMGRSLGAE", "amyloid nucleation score": "inactive"}, {"substance": "HITCVMSIKTRGLRMTERGS", "amyloid nucleation score": "1.51 ± 0.096"}, {"substance": "FSFITL", "amyloid nucleation score": "inactive"}, {"substance": "YPMLLALYTGSVFNFNRCRL", "amyloid nucleation score": "2.07 ± 0.089"}]}]}
